This note sets out measurements from article PMC5436579 (2017).

This series deals with the molecule itself.

B1: AmpR effector-binding domain (protein)
chain: LLERFEGGHYRDVLTVGAVGTFTVGWLLPRLEDFQARHPFIDLRLSTHNNRVDIAAEGLDYAIRFGGGAWHGTEALALFEAPLTVLCCPEVAAQLHSPADLLQHTLLRSYRADEWPLWFQAAGLPAHAPLTRSIVFDTSLAMLEAARQGVGVALAPAAMFARQLASESIRRPFATEVSTGSYWLTRLQSRGETSAMLAFRGWLLEMAAVEARGR
The Kd is a measure of binding affinity in units of concentration. Lower therefore signals higher affinity. B1 gave a Kd of less than 1 µM.
